{"source": "paper PMC9714666", "about": "(Frontiers in Immunology, 2022)", "key": {"[1]": {"molecular_target": "T1, SARS-CoV-2 Omicron (B.1.1.529) RBD, biotinylated (SARS-CoV-2 Omicron B.1.1.529 (BA.1), strain, biotinylated)", "T1 construct": "source: bought: ACRObiosystems", "assay": "BLI", "settings": "both partners purified"}, "[2]": {"molecular_target": "T2, SARS-CoV-2 Omicron BA.5 RBD, biotinylated (SARS-CoV-2 Omicron BA.5, strain, biotinylated)", "T2 construct": "source: bought: ACRObiosystems", "assay": "BLI", "settings": "both partners purified"}}}
{"binder": "D27LEY (antibody, V domains shown) VH: QVQLQQSGAEVKKPGSSVKVSCKASGGTFGNWSISWVRQAPGQGLEWMGGIAPGRGEATYAQKFQGRVTITTDESTSTAYMELSSLRSEDTAVYYCARETWYTSGGMDVWGQGTTVTVSS VL: SYELTQPPSVSVAPGKTARITCGGNNIGRKSVHWYQQKPGQAPVLVVYDDSDRPSGIPERFSGSNSGNTATLTISRVEAGDEADYYCQVYDLWSSDYVFGTGTKVEIK", "values": [{"measurement": "Kd", "setting": "[1]", "result": 0.34, "unit": "nM"}, {"measurement": "Kd", "setting": "[2]", "result": 0.37, "unit": "nM"}]}
